From patent publication US20200399343A1

Key:
[1] = target: major histocompatibility complex (MHC) Class I
[2] = target: major histocompatibility complex (MHC) Class I; remark: listed apart in the source

Chain of US3 (P09712 21-186 limits assumed): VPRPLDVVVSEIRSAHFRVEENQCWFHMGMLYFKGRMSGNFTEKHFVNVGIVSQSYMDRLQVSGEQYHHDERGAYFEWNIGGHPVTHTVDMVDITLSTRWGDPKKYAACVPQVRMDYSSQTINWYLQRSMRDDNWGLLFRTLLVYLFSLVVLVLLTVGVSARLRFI
Chain of K5 (P90489 whole entry): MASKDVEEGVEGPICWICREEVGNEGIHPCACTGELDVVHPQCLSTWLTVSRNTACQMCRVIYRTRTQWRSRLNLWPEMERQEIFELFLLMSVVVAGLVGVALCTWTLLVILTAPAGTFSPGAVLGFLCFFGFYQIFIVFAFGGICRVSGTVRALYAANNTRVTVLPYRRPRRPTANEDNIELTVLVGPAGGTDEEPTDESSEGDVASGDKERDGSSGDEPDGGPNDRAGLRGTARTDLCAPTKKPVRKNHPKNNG
Chain of K3 (P90495 whole entry): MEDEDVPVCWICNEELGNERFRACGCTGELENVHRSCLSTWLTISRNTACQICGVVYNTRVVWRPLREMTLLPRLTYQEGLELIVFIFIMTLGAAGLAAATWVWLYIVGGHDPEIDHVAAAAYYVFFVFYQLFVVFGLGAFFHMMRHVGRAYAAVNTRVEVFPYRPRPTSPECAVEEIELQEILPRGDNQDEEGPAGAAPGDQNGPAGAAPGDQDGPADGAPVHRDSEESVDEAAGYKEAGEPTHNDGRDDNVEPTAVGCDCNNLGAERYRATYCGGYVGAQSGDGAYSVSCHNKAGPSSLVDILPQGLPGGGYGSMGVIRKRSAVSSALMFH

Row | Molecule | MHC Class I expression (MFI HLA A/B/C) on transduced primary T cells (MFI HLA A/B/C) [1] | MHC Class I expression (MFI HLA A/B/C) on transduced Jurkat cells (MFI HLA A/B/C) [2]
1 | K5 | 4480 | 661
2 | K3 | 10900 | 2170
3 | US3 | 13000 | 5320
4 | US11 (protein) MPELSLTLFDEPPPLVETEPLPPLSDVSEYRVEYSEARCVLRSGGRLEALWTLRGNLSVPTPTPRVYYQTLEGYADRVPTPVEDVSESLVAKRYWLRDYRVPQRTKLVLFYFSPCHQCQTYYVECEPRCLVPWVPLWSSLEDIERLLFEDRRLMAYYALTIKSAQYTLMMVAVIQVFWGLYVKGWLHRHFPWMFSDQW | 14600 | 8080
5 | US2 (protein) MNNLWKAWVGLWTSMGPLIRLPDGITKAGEDALRPWKSTAKHPWFQIEDNRCYIDNGKLFARGSIVGNMSRFVFDPKADYGGVGENLYVHADDVEFVPGESLKWNVRNLDVMPIFETLALRLVLQGDVIWLRCVPELRVDYTSSAYMWNMQYGMVRKSYTHVAWTIVFYSINITLLVLFIVYVTVDCNLSMMWMRFFVC | 14500 | 6080
6 | US6 (protein) ERSSRDPKTLLSLSPRQQACVPRTKSHRPVCYNDTGDCTDADDSWKQLGEDFAHQCLQAAKKRPKTHKSRPNDRNLEGRLTCQRVRRLLPCDLDIHPSHRLLTLMNNCVCDGAVWNAFRLIERHGFFAVTLYLCCGITLLVVILALLCSITYESTGRGIRR | 9500 | 1720
7 | ICP47 (protein) MSWALEMADTFLDTMRVGPRTYADVRDEINKRGREDREAARTAVHDPERPLLRSPGLLPEIAPNASLGVAHRRTGGTVTDSPRNPVTR | 5940 | 2060
8 | E19 (protein) TTQKVDFKEPACNVTFAAEANECTTLIKCTTEHEKLLIRHKNKIGKYAVYAIWQPGDTTEYNVTVFQGKSHKTFMYTFPFYEMCDITMYMSKQYKLWPPQNCVENTGTFCCTAMLITVLALVCTLLYIKYKSRRSFIEEKKMP | 14800 | 3430
